Experimental findings from publication PMC6624373, “Lamin A molecular compression and sliding as mechanisms behind nucleoskeleton elasticity” (Nature Communications, 2019) are described below.

A word on the stoichiometry N: it is the number of molecules, sites or subunits per partner or assembly.

The series deals with the molecule itself. In words: rotary metal shadowing EM; in vitro assembly assay: after dialysis into 25 mM MES, 150 mM NaCl, 1 mM DTT, 1 mM EGTA pH 6.5, 30% glycerol; dimers scored as singular or incorporated into head-to-tail oligomers.

B1: lamin A R25G (natural protein, human, UniProt P02545 1-646, looked up)
chain: METPSQRRATRSGAQASSTPLSPTGITRLQEKEDLQELNDRLAVYIDRVRSLETENAGLRLRITESEEVVSREVSGIKAAYEAELGDARKTLDSVAKERARLQLELSKVREEFKELKARNTKKEGDLIAAQARLKDLEALLNSKEAALSTALSEKRTLEGELHDLRGQVAKLEAALGEAKKQLQDEMLRRVDAENRLQTMKEELDFQKNIYSEELRETKRRHETRLVEIDNGKQREFESRLADALQELRAQHEDQVEQYKKELEKTYSAKLDNARQSAERNSNLVGAAHEELQQSRIRIDSLSAQLSQLQKQLAAKEAKLRDLEDSLARERDTSRRLLAEKEREMAEMRARMQQQLDEYQELLDIKLALDMEIHAYRKLLEGEEERLRLSPSPTSQRSRGRASSHSSQTQGGGSVTKKRKLESTESRSSFSQHARTSGRVAVEEVDEEGKFVRLRNKSNEDQSMGNWQIKRQNGDDPLLTYRFPPKFTLKAGQVVTIWAAGAGATHSPPTDLVWKAQNTWGCGNSLRTALINSTGEEVAMRKLVRSVTVVEDDEDEDGDDLLHHHHGSHCSSSGDPAEYNLRSRTVLCGTCGQPADKASASGSGAQVGGPISSGSSASSVTVTRSYRSVGGSGGGSFGDNLVTRSY
notes: lamin A, human; pre-lamin A without its last 18 amino acids, as m1; mutation associated with EDMD/LGMD1B; source: E. coli (pET28b); purification of the mutants not separately stated
In the case of B1, the “stoichiometry N” value was 2.

B2: lamin A R388C (natural protein, human, UniProt P02545 1-646, looked up)
chain: METPSQRRATRSGAQASSTPLSPTRITRLQEKEDLQELNDRLAVYIDRVRSLETENAGLRLRITESEEVVSREVSGIKAAYEAELGDARKTLDSVAKERARLQLELSKVREEFKELKARNTKKEGDLIAAQARLKDLEALLNSKEAALSTALSEKRTLEGELHDLRGQVAKLEAALGEAKKQLQDEMLRRVDAENRLQTMKEELDFQKNIYSEELRETKRRHETRLVEIDNGKQREFESRLADALQELRAQHEDQVEQYKKELEKTYSAKLDNARQSAERNSNLVGAAHEELQQSRIRIDSLSAQLSQLQKQLAAKEAKLRDLEDSLARERDTSRRLLAEKEREMAEMRARMQQQLDEYQELLDIKLALDMEIHAYRKLLEGEEERLCLSPSPTSQRSRGRASSHSSQTQGGGSVTKKRKLESTESRSSFSQHARTSGRVAVEEVDEEGKFVRLRNKSNEDQSMGNWQIKRQNGDDPLLTYRFPPKFTLKAGQVVTIWAAGAGATHSPPTDLVWKAQNTWGCGNSLRTALINSTGEEVAMRKLVRSVTVVEDDEDEDGDDLLHHHHGSHCSSSGDPAEYNLRSRTVLCGTCGQPADKASASGSGAQVGGPISSGSSASSVTVTRSYRSVGGSGGGSFGDNLVTRSY
notes: lamin A, human; pre-lamin A without its last 18 amino acids, as m1; mutation associated with CMD; source: E. coli (pET28b); purification of the mutants not separately stated
For B2, the “stoichiometry N” value worked out at 2.

B3: lamin A E82K (natural protein, human, UniProt P02545 1-646, looked up)
chain: METPSQRRATRSGAQASSTPLSPTRITRLQEKEDLQELNDRLAVYIDRVRSLETENAGLRLRITESEEVVSREVSGIKAAYKAELGDARKTLDSVAKERARLQLELSKVREEFKELKARNTKKEGDLIAAQARLKDLEALLNSKEAALSTALSEKRTLEGELHDLRGQVAKLEAALGEAKKQLQDEMLRRVDAENRLQTMKEELDFQKNIYSEELRETKRRHETRLVEIDNGKQREFESRLADALQELRAQHEDQVEQYKKELEKTYSAKLDNARQSAERNSNLVGAAHEELQQSRIRIDSLSAQLSQLQKQLAAKEAKLRDLEDSLARERDTSRRLLAEKEREMAEMRARMQQQLDEYQELLDIKLALDMEIHAYRKLLEGEEERLRLSPSPTSQRSRGRASSHSSQTQGGGSVTKKRKLESTESRSSFSQHARTSGRVAVEEVDEEGKFVRLRNKSNEDQSMGNWQIKRQNGDDPLLTYRFPPKFTLKAGQVVTIWAAGAGATHSPPTDLVWKAQNTWGCGNSLRTALINSTGEEVAMRKLVRSVTVVEDDEDEDGDDLLHHHHGSHCSSSGDPAEYNLRSRTVLCGTCGQPADKASASGSGAQVGGPISSGSSASSVTVTRSYRSVGGSGGGSFGDNLVTRSY
notes: lamin A, human; pre-lamin A without its last 18 amino acids, as m1; mutation associated with DCM-CD; source: E. coli (pET28b); purification of the mutants not separately stated
B3: the “stoichiometry N” value was found to be 2.

B4: lamin A R388E (natural protein, human, UniProt P02545 1-646, looked up)
chain: METPSQRRATRSGAQASSTPLSPTRITRLQEKEDLQELNDRLAVYIDRVRSLETENAGLRLRITESEEVVSREVSGIKAAYEAELGDARKTLDSVAKERARLQLELSKVREEFKELKARNTKKEGDLIAAQARLKDLEALLNSKEAALSTALSEKRTLEGELHDLRGQVAKLEAALGEAKKQLQDEMLRRVDAENRLQTMKEELDFQKNIYSEELRETKRRHETRLVEIDNGKQREFESRLADALQELRAQHEDQVEQYKKELEKTYSAKLDNARQSAERNSNLVGAAHEELQQSRIRIDSLSAQLSQLQKQLAAKEAKLRDLEDSLARERDTSRRLLAEKEREMAEMRARMQQQLDEYQELLDIKLALDMEIHAYRKLLEGEEERLELSPSPTSQRSRGRASSHSSQTQGGGSVTKKRKLESTESRSSFSQHARTSGRVAVEEVDEEGKFVRLRNKSNEDQSMGNWQIKRQNGDDPLLTYRFPPKFTLKAGQVVTIWAAGAGATHSPPTDLVWKAQNTWGCGNSLRTALINSTGEEVAMRKLVRSVTVVEDDEDEDGDDLLHHHHGSHCSSSGDPAEYNLRSRTVLCGTCGQPADKASASGSGAQVGGPISSGSSASSVTVTRSYRSVGGSGGGSFGDNLVTRSY
notes: lamin A, human; pre-lamin A without its last 18 amino acids, as m1; de novo mutant; source: E. coli (pET28b); purification of the mutants not separately stated
For the protein B4, the “stoichiometry N” value came to 2.

B5: lamin A E33G (natural protein, human, UniProt P02545 1-646, looked up)
chain: METPSQRRATRSGAQASSTPLSPTRITRLQEKGDLQELNDRLAVYIDRVRSLETENAGLRLRITESEEVVSREVSGIKAAYEAELGDARKTLDSVAKERARLQLELSKVREEFKELKARNTKKEGDLIAAQARLKDLEALLNSKEAALSTALSEKRTLEGELHDLRGQVAKLEAALGEAKKQLQDEMLRRVDAENRLQTMKEELDFQKNIYSEELRETKRRHETRLVEIDNGKQREFESRLADALQELRAQHEDQVEQYKKELEKTYSAKLDNARQSAERNSNLVGAAHEELQQSRIRIDSLSAQLSQLQKQLAAKEAKLRDLEDSLARERDTSRRLLAEKEREMAEMRARMQQQLDEYQELLDIKLALDMEIHAYRKLLEGEEERLRLSPSPTSQRSRGRASSHSSQTQGGGSVTKKRKLESTESRSSFSQHARTSGRVAVEEVDEEGKFVRLRNKSNEDQSMGNWQIKRQNGDDPLLTYRFPPKFTLKAGQVVTIWAAGAGATHSPPTDLVWKAQNTWGCGNSLRTALINSTGEEVAMRKLVRSVTVVEDDEDEDGDDLLHHHHGSHCSSSGDPAEYNLRSRTVLCGTCGQPADKASASGSGAQVGGPISSGSSASSVTVTRSYRSVGGSGGGSFGDNLVTRSY
notes: as for B1
As to B5, the “stoichiometry N” value was found to be 2.

B6: lamin A R401C (natural protein, human, UniProt P02545 1-646, looked up)
chain: METPSQRRATRSGAQASSTPLSPTRITRLQEKEDLQELNDRLAVYIDRVRSLETENAGLRLRITESEEVVSREVSGIKAAYEAELGDARKTLDSVAKERARLQLELSKVREEFKELKARNTKKEGDLIAAQARLKDLEALLNSKEAALSTALSEKRTLEGELHDLRGQVAKLEAALGEAKKQLQDEMLRRVDAENRLQTMKEELDFQKNIYSEELRETKRRHETRLVEIDNGKQREFESRLADALQELRAQHEDQVEQYKKELEKTYSAKLDNARQSAERNSNLVGAAHEELQQSRIRIDSLSAQLSQLQKQLAAKEAKLRDLEDSLARERDTSRRLLAEKEREMAEMRARMQQQLDEYQELLDIKLALDMEIHAYRKLLEGEEERLRLSPSPTSQRSRGCASSHSSQTQGGGSVTKKRKLESTESRSSFSQHARTSGRVAVEEVDEEGKFVRLRNKSNEDQSMGNWQIKRQNGDDPLLTYRFPPKFTLKAGQVVTIWAAGAGATHSPPTDLVWKAQNTWGCGNSLRTALINSTGEEVAMRKLVRSVTVVEDDEDEDGDDLLHHHHGSHCSSSGDPAEYNLRSRTVLCGTCGQPADKASASGSGAQVGGPISSGSSASSVTVTRSYRSVGGSGGGSFGDNLVTRSY
notes: lamin A, human; pre-lamin A without its last 18 amino acids, as m1; mutation associated with EDMD; source: E. coli (pET28b); purification of the mutants not separately stated
In the case of B6, the “stoichiometry N” value came to 2.

B7: lamin A R401E (natural protein, human, UniProt P02545 1-646, looked up)
chain: METPSQRRATRSGAQASSTPLSPTRITRLQEKEDLQELNDRLAVYIDRVRSLETENAGLRLRITESEEVVSREVSGIKAAYEAELGDARKTLDSVAKERARLQLELSKVREEFKELKARNTKKEGDLIAAQARLKDLEALLNSKEAALSTALSEKRTLEGELHDLRGQVAKLEAALGEAKKQLQDEMLRRVDAENRLQTMKEELDFQKNIYSEELRETKRRHETRLVEIDNGKQREFESRLADALQELRAQHEDQVEQYKKELEKTYSAKLDNARQSAERNSNLVGAAHEELQQSRIRIDSLSAQLSQLQKQLAAKEAKLRDLEDSLARERDTSRRLLAEKEREMAEMRARMQQQLDEYQELLDIKLALDMEIHAYRKLLEGEEERLRLSPSPTSQRSRGEASSHSSQTQGGGSVTKKRKLESTESRSSFSQHARTSGRVAVEEVDEEGKFVRLRNKSNEDQSMGNWQIKRQNGDDPLLTYRFPPKFTLKAGQVVTIWAAGAGATHSPPTDLVWKAQNTWGCGNSLRTALINSTGEEVAMRKLVRSVTVVEDDEDEDGDDLLHHHHGSHCSSSGDPAEYNLRSRTVLCGTCGQPADKASASGSGAQVGGPISSGSSASSVTVTRSYRSVGGSGGGSFGDNLVTRSY
notes: as for B4
Turning to B7, the “stoichiometry N” value amounted to 2.

B8: lamin A E65G (natural protein, human, UniProt P02545 1-646, looked up)
chain: METPSQRRATRSGAQASSTPLSPTRITRLQEKEDLQELNDRLAVYIDRVRSLETENAGLRLRITGSEEVVSREVSGIKAAYEAELGDARKTLDSVAKERARLQLELSKVREEFKELKARNTKKEGDLIAAQARLKDLEALLNSKEAALSTALSEKRTLEGELHDLRGQVAKLEAALGEAKKQLQDEMLRRVDAENRLQTMKEELDFQKNIYSEELRETKRRHETRLVEIDNGKQREFESRLADALQELRAQHEDQVEQYKKELEKTYSAKLDNARQSAERNSNLVGAAHEELQQSRIRIDSLSAQLSQLQKQLAAKEAKLRDLEDSLARERDTSRRLLAEKEREMAEMRARMQQQLDEYQELLDIKLALDMEIHAYRKLLEGEEERLRLSPSPTSQRSRGRASSHSSQTQGGGSVTKKRKLESTESRSSFSQHARTSGRVAVEEVDEEGKFVRLRNKSNEDQSMGNWQIKRQNGDDPLLTYRFPPKFTLKAGQVVTIWAAGAGATHSPPTDLVWKAQNTWGCGNSLRTALINSTGEEVAMRKLVRSVTVVEDDEDEDGDDLLHHHHGSHCSSSGDPAEYNLRSRTVLCGTCGQPADKASASGSGAQVGGPISSGSSASSVTVTRSYRSVGGSGGGSFGDNLVTRSY
notes: as for B1
B8: the “stoichiometry N” value is 2.
